{"source": "IntAct's records for PubMed 36931259", "parents": {"B1": {"name": "14-3-3 protein sigma (Homo sapiens), P31947 (parent)", "chain": "MERASLIQKAKLAEQAERYEDMAAFMKGAVEKGEELSCEERNLLSVAYKNVVGGQRAAWRVLSSIEQKSNEEGSEEKGPEVREYREKVETELQGVCDTVLGLLDSHLIKEAGDAESRVFYLKMKGDYYRYLAEVATGDDKKRIIDSARSAYQEAMDISKKEMPPTNPIRLGLALNFSVFHYEIANSPEEAISLAKTTFDEAMADLHTLSEDSYKDSTLIMQLLRDNLTLWTADNAGEEGGEAPQEPQS", "partner": "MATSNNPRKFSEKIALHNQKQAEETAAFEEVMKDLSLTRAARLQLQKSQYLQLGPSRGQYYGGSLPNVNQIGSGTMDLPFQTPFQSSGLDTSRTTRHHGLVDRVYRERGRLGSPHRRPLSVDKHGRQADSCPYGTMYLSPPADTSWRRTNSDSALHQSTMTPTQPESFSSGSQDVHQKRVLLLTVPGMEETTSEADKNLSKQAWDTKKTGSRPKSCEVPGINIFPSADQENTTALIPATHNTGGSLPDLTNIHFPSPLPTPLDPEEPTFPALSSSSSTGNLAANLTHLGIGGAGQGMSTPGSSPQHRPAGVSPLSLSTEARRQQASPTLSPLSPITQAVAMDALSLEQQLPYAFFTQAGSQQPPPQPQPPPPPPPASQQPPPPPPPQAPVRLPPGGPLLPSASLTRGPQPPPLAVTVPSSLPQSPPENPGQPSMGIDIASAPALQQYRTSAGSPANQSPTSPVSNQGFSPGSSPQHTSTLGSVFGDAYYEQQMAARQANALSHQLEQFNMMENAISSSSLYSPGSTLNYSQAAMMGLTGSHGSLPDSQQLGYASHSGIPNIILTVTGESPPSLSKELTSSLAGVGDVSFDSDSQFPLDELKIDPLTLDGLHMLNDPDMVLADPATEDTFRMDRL"}, "B2": {"name": "14-3-3 protein sigma (Homo sapiens), P31947 (parent)", "chain": "B1 chain", "partner": "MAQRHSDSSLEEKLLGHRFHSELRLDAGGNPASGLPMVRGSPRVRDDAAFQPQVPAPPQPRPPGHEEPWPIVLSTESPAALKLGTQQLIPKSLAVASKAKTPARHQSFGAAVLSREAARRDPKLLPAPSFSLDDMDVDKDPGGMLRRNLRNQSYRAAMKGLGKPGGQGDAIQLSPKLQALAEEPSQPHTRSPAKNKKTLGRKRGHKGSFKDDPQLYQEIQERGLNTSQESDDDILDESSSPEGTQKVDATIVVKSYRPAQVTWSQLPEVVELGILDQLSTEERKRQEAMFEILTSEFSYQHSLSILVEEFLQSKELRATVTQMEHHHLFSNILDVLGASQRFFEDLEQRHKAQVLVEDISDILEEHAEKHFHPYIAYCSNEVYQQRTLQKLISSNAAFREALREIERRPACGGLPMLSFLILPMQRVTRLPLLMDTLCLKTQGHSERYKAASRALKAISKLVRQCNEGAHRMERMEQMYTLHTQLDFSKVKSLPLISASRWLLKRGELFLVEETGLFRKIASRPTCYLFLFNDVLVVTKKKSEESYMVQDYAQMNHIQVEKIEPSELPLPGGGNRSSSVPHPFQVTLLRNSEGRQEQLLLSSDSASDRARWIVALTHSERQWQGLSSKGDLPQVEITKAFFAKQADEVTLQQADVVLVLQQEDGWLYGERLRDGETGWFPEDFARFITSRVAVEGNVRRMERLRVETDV"}, "B3": {"name": "14-3-3 protein sigma (Homo sapiens), P31947 (parent)", "chain": "B1 chain", "partner": "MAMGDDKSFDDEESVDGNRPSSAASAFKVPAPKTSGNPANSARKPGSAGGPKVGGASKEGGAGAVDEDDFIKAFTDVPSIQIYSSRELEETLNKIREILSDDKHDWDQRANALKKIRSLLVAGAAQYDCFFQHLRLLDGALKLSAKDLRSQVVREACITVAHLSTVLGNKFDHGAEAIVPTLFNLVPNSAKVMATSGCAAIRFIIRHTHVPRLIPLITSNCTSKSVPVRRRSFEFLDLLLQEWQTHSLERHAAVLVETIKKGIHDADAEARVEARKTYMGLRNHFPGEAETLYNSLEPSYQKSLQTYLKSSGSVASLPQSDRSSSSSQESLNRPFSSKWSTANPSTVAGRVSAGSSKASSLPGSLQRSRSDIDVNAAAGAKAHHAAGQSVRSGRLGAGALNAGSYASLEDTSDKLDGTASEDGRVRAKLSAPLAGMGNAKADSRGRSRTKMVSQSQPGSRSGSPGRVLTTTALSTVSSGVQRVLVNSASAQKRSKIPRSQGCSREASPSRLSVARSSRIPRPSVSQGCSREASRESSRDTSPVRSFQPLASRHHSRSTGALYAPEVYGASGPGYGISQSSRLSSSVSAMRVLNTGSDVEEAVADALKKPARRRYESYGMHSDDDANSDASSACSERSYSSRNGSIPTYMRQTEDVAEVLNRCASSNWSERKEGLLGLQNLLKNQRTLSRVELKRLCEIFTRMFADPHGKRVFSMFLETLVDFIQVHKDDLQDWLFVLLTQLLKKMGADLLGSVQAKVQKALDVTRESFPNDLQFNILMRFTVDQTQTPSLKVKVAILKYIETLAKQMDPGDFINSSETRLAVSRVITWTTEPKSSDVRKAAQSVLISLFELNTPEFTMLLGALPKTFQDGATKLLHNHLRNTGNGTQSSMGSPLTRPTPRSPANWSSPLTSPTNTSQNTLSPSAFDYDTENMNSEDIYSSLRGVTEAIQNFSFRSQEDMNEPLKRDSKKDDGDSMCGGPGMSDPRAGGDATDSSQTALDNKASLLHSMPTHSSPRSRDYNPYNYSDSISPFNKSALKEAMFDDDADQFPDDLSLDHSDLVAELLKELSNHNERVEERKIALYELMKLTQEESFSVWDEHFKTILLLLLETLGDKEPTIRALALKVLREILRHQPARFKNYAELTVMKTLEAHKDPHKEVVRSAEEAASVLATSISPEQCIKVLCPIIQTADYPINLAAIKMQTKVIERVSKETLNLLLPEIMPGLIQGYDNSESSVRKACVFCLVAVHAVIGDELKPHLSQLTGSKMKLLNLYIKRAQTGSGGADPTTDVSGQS"}, "B4": {"name": "14-3-3 protein sigma (Homo sapiens), P31947 (parent)", "chain": "B1 chain", "partner": "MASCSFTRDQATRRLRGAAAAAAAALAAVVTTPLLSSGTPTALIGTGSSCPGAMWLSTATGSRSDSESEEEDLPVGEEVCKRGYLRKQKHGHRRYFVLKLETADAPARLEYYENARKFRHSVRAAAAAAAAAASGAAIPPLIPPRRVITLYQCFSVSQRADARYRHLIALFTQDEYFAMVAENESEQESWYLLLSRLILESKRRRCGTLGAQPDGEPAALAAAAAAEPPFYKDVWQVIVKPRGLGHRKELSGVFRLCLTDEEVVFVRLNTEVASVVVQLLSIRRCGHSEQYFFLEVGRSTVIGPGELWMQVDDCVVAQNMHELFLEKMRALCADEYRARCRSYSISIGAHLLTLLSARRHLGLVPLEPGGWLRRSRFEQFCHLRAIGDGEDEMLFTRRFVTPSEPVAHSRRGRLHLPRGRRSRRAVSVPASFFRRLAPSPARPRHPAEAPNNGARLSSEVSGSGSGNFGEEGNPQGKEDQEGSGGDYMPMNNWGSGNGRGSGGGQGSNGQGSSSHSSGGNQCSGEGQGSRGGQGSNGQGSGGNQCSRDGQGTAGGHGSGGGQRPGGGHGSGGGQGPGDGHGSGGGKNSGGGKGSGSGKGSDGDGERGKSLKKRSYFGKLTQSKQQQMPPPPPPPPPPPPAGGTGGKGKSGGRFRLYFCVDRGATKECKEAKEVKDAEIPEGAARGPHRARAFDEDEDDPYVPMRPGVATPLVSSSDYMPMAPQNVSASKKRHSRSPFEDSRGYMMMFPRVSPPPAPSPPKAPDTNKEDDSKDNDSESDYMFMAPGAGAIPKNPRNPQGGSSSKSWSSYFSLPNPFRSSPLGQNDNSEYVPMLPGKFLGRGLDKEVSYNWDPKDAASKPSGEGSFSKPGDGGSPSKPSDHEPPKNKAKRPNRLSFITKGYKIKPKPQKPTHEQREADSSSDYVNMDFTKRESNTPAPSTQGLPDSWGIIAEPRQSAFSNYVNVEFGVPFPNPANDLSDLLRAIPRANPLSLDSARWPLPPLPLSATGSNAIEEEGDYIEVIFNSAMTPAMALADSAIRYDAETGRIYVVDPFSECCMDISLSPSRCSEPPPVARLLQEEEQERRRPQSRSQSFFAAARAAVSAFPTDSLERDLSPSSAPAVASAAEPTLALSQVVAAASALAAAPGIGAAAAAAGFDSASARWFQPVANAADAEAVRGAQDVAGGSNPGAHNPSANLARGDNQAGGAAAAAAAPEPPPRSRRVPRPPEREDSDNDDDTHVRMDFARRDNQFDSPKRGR"}, "B5": {"name": "14-3-3 protein sigma (Homo sapiens), P31947 (parent)", "chain": "B1 chain", "partner": "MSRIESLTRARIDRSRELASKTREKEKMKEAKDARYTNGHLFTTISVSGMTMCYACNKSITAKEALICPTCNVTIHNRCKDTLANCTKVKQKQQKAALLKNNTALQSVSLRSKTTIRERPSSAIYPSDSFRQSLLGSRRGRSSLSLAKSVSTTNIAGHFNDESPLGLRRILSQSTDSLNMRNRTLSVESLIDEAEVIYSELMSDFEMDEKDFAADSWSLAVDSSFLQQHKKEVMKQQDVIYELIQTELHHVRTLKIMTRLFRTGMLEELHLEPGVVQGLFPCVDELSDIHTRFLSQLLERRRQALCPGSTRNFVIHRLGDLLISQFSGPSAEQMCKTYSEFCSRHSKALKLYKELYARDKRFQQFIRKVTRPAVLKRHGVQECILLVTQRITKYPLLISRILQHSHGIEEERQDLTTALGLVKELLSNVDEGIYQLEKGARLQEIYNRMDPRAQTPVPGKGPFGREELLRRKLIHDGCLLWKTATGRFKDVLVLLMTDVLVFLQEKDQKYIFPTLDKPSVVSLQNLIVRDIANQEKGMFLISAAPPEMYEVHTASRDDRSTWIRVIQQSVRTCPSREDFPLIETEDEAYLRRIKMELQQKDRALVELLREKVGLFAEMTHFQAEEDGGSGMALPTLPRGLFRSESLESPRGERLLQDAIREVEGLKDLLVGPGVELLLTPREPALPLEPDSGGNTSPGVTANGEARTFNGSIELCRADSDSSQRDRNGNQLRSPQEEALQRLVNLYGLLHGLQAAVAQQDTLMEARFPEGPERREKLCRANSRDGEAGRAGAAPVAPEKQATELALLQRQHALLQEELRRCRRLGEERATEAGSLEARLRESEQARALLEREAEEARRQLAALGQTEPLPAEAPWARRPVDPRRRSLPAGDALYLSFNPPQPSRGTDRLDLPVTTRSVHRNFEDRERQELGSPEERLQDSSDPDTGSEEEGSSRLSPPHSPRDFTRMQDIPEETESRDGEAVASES"}, "B6": {"name": "14-3-3 protein sigma (Homo sapiens), P31947 (parent)", "chain": "B1 chain", "partner": "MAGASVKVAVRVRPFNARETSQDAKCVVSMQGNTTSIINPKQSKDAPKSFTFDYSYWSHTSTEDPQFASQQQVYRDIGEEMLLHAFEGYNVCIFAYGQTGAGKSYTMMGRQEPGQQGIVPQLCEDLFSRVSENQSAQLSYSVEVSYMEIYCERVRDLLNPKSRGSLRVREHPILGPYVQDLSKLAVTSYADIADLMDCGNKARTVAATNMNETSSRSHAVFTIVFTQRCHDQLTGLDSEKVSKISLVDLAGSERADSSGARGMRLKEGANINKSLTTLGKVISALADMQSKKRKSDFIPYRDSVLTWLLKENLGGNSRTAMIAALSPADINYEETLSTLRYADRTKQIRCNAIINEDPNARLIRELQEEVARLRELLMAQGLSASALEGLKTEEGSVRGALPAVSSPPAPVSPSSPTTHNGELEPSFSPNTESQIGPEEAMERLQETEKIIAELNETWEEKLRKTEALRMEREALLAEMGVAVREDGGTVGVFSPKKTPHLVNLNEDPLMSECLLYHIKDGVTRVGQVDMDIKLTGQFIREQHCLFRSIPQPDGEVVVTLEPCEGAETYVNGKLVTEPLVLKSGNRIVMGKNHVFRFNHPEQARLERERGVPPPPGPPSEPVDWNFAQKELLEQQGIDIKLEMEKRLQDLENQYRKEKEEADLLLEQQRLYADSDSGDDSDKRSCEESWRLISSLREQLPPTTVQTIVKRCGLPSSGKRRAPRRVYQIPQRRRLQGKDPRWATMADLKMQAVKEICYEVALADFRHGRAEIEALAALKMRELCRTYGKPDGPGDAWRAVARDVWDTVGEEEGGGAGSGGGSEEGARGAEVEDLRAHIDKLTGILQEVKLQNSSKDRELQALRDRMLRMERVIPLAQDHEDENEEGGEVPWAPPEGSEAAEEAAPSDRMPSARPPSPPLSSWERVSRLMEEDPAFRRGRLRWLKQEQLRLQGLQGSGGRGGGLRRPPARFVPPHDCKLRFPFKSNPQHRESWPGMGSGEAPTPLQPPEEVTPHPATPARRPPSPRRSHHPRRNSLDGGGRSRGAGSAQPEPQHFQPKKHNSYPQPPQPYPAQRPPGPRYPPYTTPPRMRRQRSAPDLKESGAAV"}}}
{"variants_of": "B1", "conditions": "with crtc1_human CRTC1, Q6UUV9"}
{"variant": "K49E;R56E;V178D", "effect of a mutation on the interaction": "decreasing interaction strength"}
{"variants_of": "B2", "conditions": "with arhgg_human ARHGEF16, Q5VV41"}
{"variant": "K49E;R56E;V178D", "effect of a mutation on the interaction": "decreasing interaction strength"}
{"variants_of": "B3", "conditions": "with clap2_human CLASP2, O75122"}
{"variant": "K49E;R56E;V178D", "effect of a mutation on the interaction": "decreasing interaction strength"}
{"variants_of": "B4", "conditions": "with irs4_human IRS4, O14654"}
{"variant": "K49E;R56E;V178D", "effect of a mutation on the interaction": "decreasing interaction strength"}
{"variants_of": "B5", "conditions": "with arhg2_human ARHGEF2, Q92974"}
{"variant": "K49E;R56E;V178D", "effect of a mutation on the interaction": "decreasing interaction strength"}
{"variants_of": "B6", "conditions": "with kif1c_human KIF1C"}
{"variant": "K49E;R56E;V178D", "effect of a mutation on the interaction": "decreasing interaction strength"}
